Our source for the Kd values is publication PMC6937246.

In test [1] the target is purified tubulin dimer. Nature of the test: SPR. Background: Surface plasmon resonance follows binding to a sensor surface in real time, without labels.
Test [2] addresses purified tubulin dimer. Briefly: SPR; VASH1 R222A/C169S. The following applies: complex.
In test [3] the target is purified tubulin dimer. Briefly: SPR; VASH1 K168E/C169S. The settings on record: complex.

As a reminder, the Kd is the concentration at which binding is half-saturated. A low value points to a tighter complex.

VASH1-SVBP complex, VASH1 mutated at K168, sequence (Q7L8A9 44-315, change not shown): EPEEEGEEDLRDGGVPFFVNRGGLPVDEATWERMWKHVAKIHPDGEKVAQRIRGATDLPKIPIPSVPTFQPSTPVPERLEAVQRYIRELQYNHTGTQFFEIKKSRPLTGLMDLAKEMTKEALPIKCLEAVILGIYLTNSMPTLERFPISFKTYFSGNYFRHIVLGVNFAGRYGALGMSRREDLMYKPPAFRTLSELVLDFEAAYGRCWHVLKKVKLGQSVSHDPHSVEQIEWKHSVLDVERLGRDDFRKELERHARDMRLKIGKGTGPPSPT
VASH1-SVBP complex, VASH1 mutated at K168, sequence (Q8N300 whole entry, change not shown): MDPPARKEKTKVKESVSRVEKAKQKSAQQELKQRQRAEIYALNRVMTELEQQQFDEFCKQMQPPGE
VASH1-SVBP complex, VASH1 mutated at R222, sequence (Q7L8A9 44-315, change not shown): as the sequence (Q7L8A9 44-315, change not shown) above
VASH1-SVBP complex, VASH1 mutated at R222, sequence (Q8N300 whole entry, change not shown): as the sequence (Q8N300 whole entry, change not shown) above

Regarding VASH1 S221A/C169S-SVBP, the equilibrium dissociation constant (Kd) with purified tubulin dimer [1] is 570 nM.
Still for that read-out and setting: to VASH1 C169A-SVBP belongs 990 nM; to VASH1 C169S-SVBP, 470 nM.
As for “VASH1-SVBP complex, VASH1 mutated at R222 (from UniProt Q7L8A9 44-315; Q8N300 1-66)”, the Kd with purified tubulin dimer [2] was determined as 1400 nM.
VASH1 R222E/R223E/C169S-SVBP returned a Kd with purified tubulin dimer [1] of 1310 nM.
In turn, VASH1 H204A/C169S-SVBP displayed a Kd with purified tubulin dimer [1] of 750 nM.
As for “VASH1-SVBP complex, VASH1 mutated at K168 (from UniProt Q7L8A9 44-315; Q8N300 1-66)”, in the test with purified tubulin dimer [3], the Kd stood at 1140 nM.
